# Measurements taken from IntAct's records for PubMed 23932592.
# B1: Vacuolar protein sorting-associated protein 51 homolog (Homo sapiens), Q9UID3-1 (parent)
# chain: MAAAAAAGPSPGSGPGDSPEGPEGEAPERRRKAHGMLKLYYGLSEGEAAGRPAGPDPLDPTDLNGAHFDPEVYLDKLRRECPLAQLMDSETDMVRQIRALDSDMQTLVYENYNKFISATDTIRKMKNDFRKMEDEMDRLATNMAVITDFSARISATLQDRHERITKLAGVHALLRKLQFLFELPSRLTKCVELGAYGQAVRYQGRAQAVLQQYQHLPSFRAIQDDCQVITARLAQQLRQRFREGGSGAPEQAECVELLLALGEPAEELCEEFLAHARGRLEKELRNLEAELGPSPPAPDVLEFTDHGGSGFVGGLCQVAAAYQELFAAQGPAGAEKLAAFARQLGSRYFALVERRLAQEQGGGDNSLLVRALDRFHRRLRAPGALLAAAGLADAATEIVERVARERLGHHLQGLRAAFLGCLTDVRQALAAPRVAGKEGPGLAELLANVASSILSHIKASLAAVHLFTAKEVSFSNKPYFRGEFCSQGVREGLIVGFVHSMCQTAQSFCDSPGEKGGATPPALLLLLSRLCLDYETATISYILTLTDEQFLVQDQFPVTPVSTLCAEARETARRLLTHYVKVQGLVISQMLRKSVETRDWLSTLEPRNVRAVMKRVVEDTTAIDVQVGLLYEEGVRKAQSSDSSKRTFSVYSSSRQQGRYAPSYTPSAPMDTNLLSNIQKLFSERIDVFSPVEFNKVSVLTGIIKISLKTLLECVRLRTFGRFGLQQVQVDCHFLQLYLWRFVADEELVHLLLDEVVASAALRCPDPVPMEPSVVEVICERG
# partner: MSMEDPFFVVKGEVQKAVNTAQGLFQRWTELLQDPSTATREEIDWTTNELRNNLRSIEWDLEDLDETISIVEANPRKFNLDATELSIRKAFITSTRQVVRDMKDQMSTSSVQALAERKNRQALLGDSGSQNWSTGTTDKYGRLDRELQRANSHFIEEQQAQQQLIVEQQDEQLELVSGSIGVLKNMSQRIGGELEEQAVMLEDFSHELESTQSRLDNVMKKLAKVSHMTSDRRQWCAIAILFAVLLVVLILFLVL
# B2: Syntaxin-10 (Homo sapiens), O60499-1 (parent)
# chain: MSLEDPFFVVRGEVQKAVNTARGLYQRWCELLQESAAVGREELDWTTNELRNGLRSIEWDLEDLEETIGIVEANPGKFKLPAGDLQERKVFVERMREAVQEMKDHMVSPTAVAFLERNNREILAGKPAAQKSPSDLLDASAVSATSRYIEEQQATQQLIMDEQDQQLEMVSGSIQVLKHMSGRVGEELDEQGIMLDAFAQEMDHTQSRMDGVLRKLAKVSHMTSDRRQWCAIAVLVGVLLLVLILLFSL
# partner: B1 chain
# B3: Syntaxin-6 (Homo sapiens), O43752 (parent)
# chain: B1 partner
# partner: B1 chain
# B4: Vacuolar protein sorting-associated protein 51 homolog (Homo sapiens), Q9UID3-1 (parent)
# chain: B1 chain
# partner: B2 chain
# Variants of: B1
# Details: with stx6_human STX6, O43752
row,Variant,effect of a mutation on the interaction
1,L37A,disrupting interaction strength
2,Y40A,disrupting interaction strength
3,Y41A,disrupting interaction strength

# Variants of: B1
# Details: with stx6_human STX6, O43752
# Remark: another data set of the same source
row,Variant,effect of a mutation on the interaction
1,Y40A;Y41A,disrupting interaction strength

# Variants of: B2
# Details: with VPS51, Q9UID3-1
row,Variant,effect of a mutation on the interaction
1,P6A,disrupting interaction strength
2,D5L,disrupting interaction strength
3,R88M,disrupting interaction strength
4,F7L,disrupting interaction strength

# Variants of: B3
# Details: with VPS51, Q9UID3-1
row,Variant,effect of a mutation on the interaction
1,F7L,disrupting interaction strength
2,P6A,disrupting interaction strength
3,R88M,disrupting interaction strength
4,D5L,disrupting interaction strength

# Variants of: B4
# Details: with STX10, O60499-1
row,Variant,effect of a mutation on the interaction
1,Y40A;Y41A,disrupting interaction strength

# Variants of: B4
# Details: with STX10, O60499-1
# Remark: another data set of the same source
row,Variant,effect of a mutation on the interaction
1,L37A,disrupting interaction strength
2,Y40A,disrupting interaction strength
3,Y41A,disrupting interaction strength
